Common to all, as to experiment: single-molecule diffusometry in an ABEL trap
Assay [1] deals with Nicotiana tabacum Rubisco activase S379C (Nt-Rca-S379C) (Nicotiana tabacum).
The target is the same in assay [2]. This is another data set of the same source.
Assay [3] shares this target. This is another data set of the same source.
For assay [4] the target is unchanged. The source holds these as a separate data set.
Assay [5] shares this target. This is another data set of the same source.

One may read the stoichiometry N as the number of molecules, sites or subunits per partner or assembly.

Values joined by “and” are separate entries in the source; they are usually repeats but may differ in a detail not shown here. Identical values can stand only once. Like-named read-outs stand apart in the source and are kept apart here.

On to “Nicotiana tabacum Rubisco activase S379C (Nt-Rca-S379C) (enzyme)”, for which the rate of subunit exchange in assay [1] is greater than 0.2 s⁻¹; in assay [2] it was 0.1 s⁻¹. The substance also had an equilibrium constant for hexamer formation from dimers (Kd 2-4 x Kd 4-6) in assay [2] of 0.2 μM^2. Moreover, the stoichiometry N in assay [2] is 2; in assay [3], 4 and 6 and > 6; in assay [4], 2; in assay [5], 4 and 6.

Source of the values: doi:10.1101/191742.
